According to the supplement of paper PMC9170038:

Test system: MS2 coat protein
Test: apparent KD of MS2 coat protein; designed switch direction (-1 OFF switch, 1 ON switch): -1; higher = weaker reporter binding
Procedure, shortened: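 The reported apparent KD is a per-design median over clusters, from curve fits of normalised cluster fluorescence. Protein titrations used SNAP-549-labelled MS2 coat protein, doubled from 0.7 or 1.5 nM to 3 µM, in Tris-HCl pH 7.5 buffer with KCl, MgCl2, BSA, DTT, tRNA and Tween-20, with no input, 200 uM small-molecule ligand, or an oligonucleotide input. The RNA switches were transcribed on Illumina chips by stalled E. coli RNA polymerase.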

[1] = Eterna round: R95, input ligand: FMN 200 uM
[2] = Eterna round: R95, input ligand: microRNA oligo, concentration not stated
[3] = Eterna round: R95, input ligand: none
[4] = input ligand: microRNA oligo, concentration not stated

Sequence | apparent KD of MS2 coat protein [1] [µM] | apparent KD of MS2 coat protein [2] [µM] | apparent KD of MS2 coat protein [3] [µM] | apparent KD of MS2 coat protein (input ligand: FMN 200 uM) [µM] | apparent KD of MS2 coat protein (input ligand: none) [µM] | apparent KD of MS2 coat protein [4] [µM]
AGAAACAGAGGAUAUCGCGGACAGCACAUGAGGAUCACCCAUGUGAUGCUCCGCGGGCCGCGAGAAGGCUGAAAUG [Rateatge] (puzzle: Exclusion 5) | 0.0293 | 0.0122 | 0.0141 |  |  | 
GGUGGACAUGAGGAUCACCCAUGUGAGGAUAUCGGCUGGCUAGCGGCGGAUGGCUUCUCGAGAAGGCGCAUUGU [Exclusion 1 V82] (puzzle: Exclusion 1) |  | 0.0677 |  |  |  | 
AGUAACUAUCACGAAAGUGAUAGUUACACAAGCAGUGAUACAUGAGGAUCACCCAUGUCCUCAUUUGCUCGUCUUAU [Sensor 3 - 28] (puzzle: Sensor v3, turn-off variant 2) | 0.0836 | 0.698 | 0.091 |  |  | 
GUACUAAGUGUGAGGAUAUCACAGGACGUUCACUAUGAGAAGGUACAUGAGGAUCACCCAUGUAUCGUGGGUCA [Eternabot (Original) Solution 7] (Eterna round: R97, puzzle: Brourd's mod of Exclusion 4) |  |  |  | 0.0203 | 0.0177 | 
UGAUCCAAAGAGGAUAUGUCGGGCCAGGGCCCAACAGAAGGCUUUACAUGAGGAUCACCCAUGUUCGCGACAUG [EX6 A.22] (Eterna round: R97, puzzle: Exclusion 6) |  |  |  | 0.481 | 0.558 | 
CUGCUCCGUGUAGGAUAUCCCGGCAACCAAUCGGGAGAAGGACAUGAGGAUCACCCAUGUAUGUUAUUAUCACGUGAAGCGUCC [Design 27] (Eterna round: R96, puzzle: Exclusion NG 1) |  |  |  |  |  | 0.0163
AGUCCUAACACGAAAGUGUUAGUACAAUAAGCUUGUGAAACAUGAGGAUCACCCAUGUCCUCAUAAGCUCGUCUUAU [salish99_TOv2_r3_015] (puzzle: Sensor v3, turn-off variant 2) | 0.0166 | 0.896 | 0.0169 |  |  | 
GGAACGGCGAACAAGGCCCACAUGAGGAUCACCCAUGUGGCUGGGUGAUCUCGCUCGUCUUAUAUAUGGCUGGACCG [salish99-s2-off-006] (Eterna round: R96, puzzle: Sensor v2, turn-off variant) |  |  |  | 0.146 | 0.104 | 0.0238
AAGCUGAAGUGCCCGUCUUACAUGAGGAUCACCCAUGUUUUGCUGAAGCGAAUACUCGCAUUAGCAAGUGAGGUCCA [Eternabot (Original) Solution 9] (Eterna round: R97, puzzle: Sensor, turn-off variant 1) |  |  |  | 0.0682 | 0.0539 | 
AUCAUGUAAGGAUAUGAAAGUAAACGCGUGAAGACCACGCAUCAGAAGGUACAUGAGGAUCACCCAUGUGUCCG [Soesatle] (Eterna round: R97, puzzle: Exclusion 4) |  |  |  | 0.0606 | 0.0198 | 
GCCAACGACUGAGGAUAUGCUUAUAGACAUGAGGAUCACCCAUGUAAAUGGGACAUGUCAAACCAGCAGAAGGCAGGACCUGGC [Inteinrais] (Eterna round: R96, puzzle: Exclusion NG 2) |  |  |  | 0.1 | 0.0703 | 0.0575
CUGAGUCAAGGAUAUACAUGAGGAUCACCCAUGUAAAGUAGCUUGCGUACAGGCAGAUGUAGAAGGUGAUUCGG [Mod of JL 9 - Jieux - Exclusion 3] (Eterna round: R97, puzzle: Exclusion 3) |  |  |  | 0.1 | 0.0907 | 
GAAAAUGUAGAGGAUAUUUCAGAUCAAGACUGCAAAGAAGGCUGCACAUGAGGAUCACCCAUGUGGUCAACAAA [Mod of Quesina 15 - Jieux - Exclusion 6] (Eterna round: R97, puzzle: Exclusion 6) |  |  |  | 0.0791 | 0.0223 | 
ACUCAGUGAGGAUAUCGCCAGAGAGCCGUGACGGCUCCUGAUGAGAAGGCACAUGAGGAUCACCCAUGUAAGCA [EX4 C.7] (Eterna round: R97, puzzle: Exclusion 4) |  |  |  | 0.204 | 0.134 | 
CGCUAGUCAGGAUAUACGAACAUGUCAAAAGACGUGAAGGGACAUGAGGAUCACCCAUGUAGAAGGGACUAGCG [salish99_ex2_r3_012] (puzzle: Exclusion 2) | 0.152 | 0.02 | 0.0285 |  |  | 
CUAACAUGCUGGUGAUCAUACAUGAGGAUCACCCAUGUAACAAGCUUUUUGCUCGUCUUAUAAUUUAAGAUCACCAG [Stov1/7-A4] (Eterna round: R97, puzzle: Sensor, turn-off variant 1) |  |  |  | 0.017 | 0.0141 | 
AUUGUUUGAUACCUCUAAUACAUGAGGAUCACCCAUGUUAUCGAGGAUAUGCAUUAGAGUGGAUAGCAGAAGGCGAAGUAAUUG [JR_ExcNG3_Sub029] (Eterna round: R96, puzzle: Exclusion NG 3) |  |  |  | 0.0137 | 0.0165 | 0.0134

Sequence | apparent KD of MS2 coat protein [1] [µM] | apparent KD of MS2 coat protein [2] [µM] | apparent KD of MS2 coat protein [3] [µM] | apparent KD of MS2 coat protein (input ligand: FMN 200 uM) [µM] | apparent KD of MS2 coat protein (input ligand: none) [µM] | apparent KD of MS2 coat protein [4] [µM]
GUGCUGGUAGGAUAUACAUGAGGAUCACCCAUGUGGCGUGACUCCUAUGGCAGCGCCGGUAGAAGGAUUAGAAG [Eternabot (L1) Solution 60] (Eterna round: R97, puzzle: Exclusion 3) |  |  |  | 0.188 | 0.261 | 
AGAAAUGCCCAUGGCCACAAGCUUUUUGCUUAUCUUACUACAUGAGGAUCACCCAUGUAACAUGGGCUCCUGACAAU [Enrionera] (puzzle: Sensor v3, turn-off variant 2) | 0.0149 | 0.0112 | 0.0133 |  |  | 
UUGUAGCAGGCCUUCGAGUACAUGAGGAUCACCCAUGUCGUGCCUGAAAUCUCAGAGACAGGUGGCUCGUCUUAGGC [Eternabot (L1) Solution 32] (Eterna round: R97, puzzle: Sensor, turn-off variant 1) |  |  |  | 0.0212 | 0.0169 | 
GAGGCAUGCCGAGGUCCACACAUGAGGAUCACCCAUGUAAUGACAGGCUUUUUACUCGUUUUAUCGCUAUCGCGUUC [Incebece] (puzzle: Sensor v3, turn-off variant 1) | 0.0135 | 0.0264 | 0.0128 |  |  | 
AAAAUACAUGAGGAUCACCCAUGUGAGGAUAUGAGCGUCAUUUAUAUAUAUUAGACGCUCAGAAGGCACAUAAA [JR_Ex1_Sub069] (Eterna round: R97, puzzle: Exclusion 1) |  |  |  | 0.214 | 0.0443 | 
CAGAGCAGAGGAUAUACAUGAGGAUCACCCAUGUGAUCAUGCUACGGGACGUUACAUUGUAGAAGGCUGCUUUC [Eternabot (L2) Solution 58] (Eterna round: R97, puzzle: Exclusion 3) |  |  |  | 0.283 | 0.0311 | 
CUUCCACGGAUUGUAUUAAACAUGAGGAUCACCCAUGUCCGGGAUUUAAAACAAGCCCUUUGCUCAGUCCUUAUUGC [Eternabot (L1) Solution 10] (Eterna round: R97, puzzle: Sensor, turn-off variant 1) |  |  |  | 0.0222 | 0.0259 | 
GAUGUGUUAGGAUAUCGAAGUAUCUGUGCUGUGGCGAAUCACGAGAAGGAACAUGAGGAUCACCCAUGUGGUUG [Eternabot (L2) Solution 34] (Eterna round: R97, puzzle: Exclusion 4) |  |  |  | 0.0689 | 0.0639 | 
UAAUUAAUUAAUUAAUAAUACAUGAGGAUCACCCAUGUAGAUCCUACAUACAAGCUAAGUAGCUCGUCUUAUAAUUA [Stov1/2-A1] (Eterna round: R97, puzzle: Sensor, turn-off variant 1) |  |  |  | 0.364 | 0.353 | 
AUUUAAUUUAAUAAGAUCACAUGAGGAUCACCCAUGUAUAUAUAGGAUAUCAGCUCGUUUAGAGCUGAGAAGGAUAUAUACUAU [ExNG3/7-B2] (Eterna round: R96, puzzle: Exclusion NG 3) |  |  |  | 0.19 | 0.278 | 0.237
UGAAGUUGUGUGAGGAUAUCGGGCCCGAAAGGGCCCGAGAAGGCACAUGAGGAUCACCCAUGUAAGCGGCUUCG [-37.8, -35.7 kcal, A 26%, 0-3] (Eterna round: R97, puzzle: Brourd's mod of Exclusion 4) |  |  |  | 0.0158 | 0.0196 | 
CAUGAUUGGCGAGGAUAUUGACCUAGUUGGCGACGAGAAGGCGCCUGUCACAUGAGGAUCACCCAUGUGAAUCUGGUGAAAGAG [Ex NG1 #90] (Eterna round: R96, puzzle: Exclusion NG 1) |  |  |  | 0.0239 | 0.0228 | 0.0161
AAUAAUGGAGGAUAUACUAAAAUAUGAAUAAAAUAAAUAAAACAUGAGGAUCACCCAUGUAGAAGGCCAAAUAA [JMF's Not so obvious solution 2] (puzzle: Exclusion 2) | 0.0209 | 0.0227 | 0.0277 |  |  | 
UAGAAACAUGAGGAUCACCCAUGUGAGGAUAUGAAAAAGAAAAGAAAAGAAAGAAGAAUCAGAAGGCACAAAGC [salish99-ex1_r3_092] (puzzle: Exclusion 1) | 0.0286 | 0.0177 | 0.0366 |  |  | 
UGAGUGCUGCGAGGAUAUACAUGAGGAUCACCCAUGUAUUAGUGUGAGGCUUUGCCUCACACAAUGUAGAAGGCGCAGUACUCU [JL ENG2 1.03] (Eterna round: R96, puzzle: Exclusion NG 2) |  |  |  | 0.00574 | 0.0131 | 0.0103
UUCUUGGCAGGAUAUGCUUUUUUAGACAUGAGGAUCACCCAUGUGAUUAUUUUUGGUUUUGCAGAAGGGCCUUAAU [JR_E5_Sub042] (puzzle: Exclusion 5) |  | 0.0599 |  |  |  | 
